We go through 2 molecules from article PMC10397247.

What all share (assay): two-hybrid library CCmax;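 also: natural log of median RNA to DNA barcode read ratio; higher means stronger binding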
One experiment addresses T1, P10-AA.
T1 chain: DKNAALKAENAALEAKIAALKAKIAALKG
The following applies: mean of both orientations.

The target in the next experiment is T2, P9-AA.
T2 chain: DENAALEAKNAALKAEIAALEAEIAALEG
The following applies: mean of both orientations.

The target in a further experiment is T3, P5-AA-1HGe-R.
T3 chain: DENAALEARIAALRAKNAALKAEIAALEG
The following applies: mean of both orientations.

The next experiment deals with T4, P5-AA-1HGe-M.
T4 chain: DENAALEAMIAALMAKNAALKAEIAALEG
The following applies: mean of both orientations.

The target of a further experiment is T5, P5-AA-1HGe-T.
T5 chain: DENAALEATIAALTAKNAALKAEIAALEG
The following applies: mean of both orientations.

For another experiment, the target named is T6, P5-AA-1HGe-Q.
T6 chain: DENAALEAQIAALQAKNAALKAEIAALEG
The note with it: mean of both orientations.

For the next experiment, the target named is T7, P5-AA-1HGe-Y.
T7 chain: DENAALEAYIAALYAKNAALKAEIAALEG
The following applies: mean of both orientations.

Another experiment addresses T8, P5-AA-1HGe-S.
T8 chain: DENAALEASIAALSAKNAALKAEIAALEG
The following applies: mean of both orientations.

The target of another experiment is T9, P5-AA-1HGe-A.
T9 chain: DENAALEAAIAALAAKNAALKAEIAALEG
The following applies: mean of both orientations.

The next experiment has as its target T10, O8-AA.
T10 chain: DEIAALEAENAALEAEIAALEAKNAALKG
The following applies: mean of both orientations.

The next experiment has as its target T11, P5-AA-1HGe-W.
T11 chain: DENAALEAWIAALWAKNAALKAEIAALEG
The note with it: mean of both orientations.

The next experiment deals with T12, P5-AA-1HGe-H.
T12 chain: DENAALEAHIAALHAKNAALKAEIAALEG
The following applies: mean of both orientations.

The next experiment concerns the target T13, O7-AA.
T13 chain: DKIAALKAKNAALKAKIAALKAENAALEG
The note with it: mean of both orientations.

For the next experiment, the target named is T14, O6-AA.
T14 chain: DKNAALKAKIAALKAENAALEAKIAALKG

A further experiment has as its target T15, P5-AA-1HGe-D.
T15 chain: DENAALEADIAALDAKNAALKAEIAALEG
The note with it: mean of both orientations.

A further experiment has as its target T16, 4H1878-AA.
T16 chain: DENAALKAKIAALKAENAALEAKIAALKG
The note with it: mean of both orientations.

Another experiment concerns the target T17, 4H1384-AA.
T17 chain: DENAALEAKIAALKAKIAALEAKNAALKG
The following applies: mean of both orientations.

Another experiment deals with T18, 4H2604-AA.
T18 chain: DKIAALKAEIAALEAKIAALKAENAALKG
The note with it: mean of both orientations.

For another experiment, the target named is T19, 4H1593-AA.
T19 chain: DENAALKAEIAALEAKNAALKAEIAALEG
The note with it: mean of both orientations.

Another experiment deals with T20, 4H446-AA.
T20 chain: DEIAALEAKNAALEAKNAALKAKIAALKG
The note with it: mean of both orientations.

Another experiment has as its target T21, 4H2621-AA.
T21 chain: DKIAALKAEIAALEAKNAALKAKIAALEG
The following applies: mean of both orientations.

Another experiment has as its target T22, 4H380-AA.
T22 chain: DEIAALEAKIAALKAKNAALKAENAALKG
The note with it: mean of both orientations.

A further experiment deals with T23, 4H341-AA.
T23 chain: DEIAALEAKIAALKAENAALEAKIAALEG
The following applies: mean of both orientations.

The next experiment deals with T24, 4H432-AA.
T24 chain: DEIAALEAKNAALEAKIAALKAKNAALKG
The note with it: mean of both orientations.

For a further experiment, the target named is T25, 4H3974-AA.
T25 chain: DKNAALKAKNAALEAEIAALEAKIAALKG
The note with it: mean of both orientations.

In the next experiment the target is T26, 4H3619-AA.
T26 chain: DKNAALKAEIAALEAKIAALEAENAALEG
The note with it: mean of both orientations.

The next experiment deals with T27, 4H2580-AA.
T27 chain: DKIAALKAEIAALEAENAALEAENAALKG
The following applies: mean of both orientations.

The target of a further experiment is T28, 4H3094-AA.
T28 chain: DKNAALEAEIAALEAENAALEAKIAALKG
The note with it: mean of both orientations.

For another experiment, the target named is T29, 4H2774-AA.
T29 chain: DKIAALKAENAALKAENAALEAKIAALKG
The following applies: mean of both orientations.

The target in a further experiment is T30, 4H324-AA.
T30 chain: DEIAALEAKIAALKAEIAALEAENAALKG
The following applies: mean of both orientations.

For the next experiment, the target named is T31, 4H1349-AA.
T31 chain: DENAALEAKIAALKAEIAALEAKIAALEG
The following applies: mean of both orientations.

The target in a further experiment is T32, 4H3629-AA.
T32 chain: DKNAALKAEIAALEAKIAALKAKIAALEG
The note with it: mean of both orientations.

Another experiment concerns the target T33, 4H1449-AA.
T33 chain: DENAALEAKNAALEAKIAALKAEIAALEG
The following applies: mean of both orientations.

The next experiment has as its target T34, 4H2947-AA.
T34 chain: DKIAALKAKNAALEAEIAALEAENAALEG
The following applies: mean of both orientations.

For another experiment, the target named is T35, 4H63-AA.
T35 chain: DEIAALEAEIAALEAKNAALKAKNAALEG
The note with it: mean of both orientations.

The target of the next experiment is T36, 4H3777-AA.
T36 chain: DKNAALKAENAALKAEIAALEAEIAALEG
The following applies: mean of both orientations.

The target of another experiment is T37, 4H1262-AA.
T37 chain: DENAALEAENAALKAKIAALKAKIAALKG

A further experiment concerns the target T38, 4H2760-AA.
T38 chain: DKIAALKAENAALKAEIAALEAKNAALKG
The note with it: mean of both orientations.

A further experiment has as its target T39, 4H3049-AA.
T39 chain: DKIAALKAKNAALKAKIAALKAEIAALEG
The note with it: mean of both orientations.

For another experiment, the target named is T40, 4H2903-AA.
T40 chain: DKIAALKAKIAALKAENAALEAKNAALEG
The note with it: mean of both orientations.

A further experiment deals with T41, 4H249-AA.
T41 chain: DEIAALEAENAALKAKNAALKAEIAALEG
The note with it: mean of both orientations.

The target in the next experiment is T42, 4H235-AA.
T42 chain: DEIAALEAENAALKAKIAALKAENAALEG
The following applies: mean of both orientations.

For another experiment, the target named is T43, 4H2961-AA.
T43 chain: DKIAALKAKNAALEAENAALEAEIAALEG
The following applies: mean of both orientations.

The next experiment deals with T44, 4H133-AA.
T44 chain: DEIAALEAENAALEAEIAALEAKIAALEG
The note with it: mean of both orientations.

The next experiment concerns the target T45, 4H3915-AA.
T45 chain: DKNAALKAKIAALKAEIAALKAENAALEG
The note with it: mean of both orientations.

The target in another experiment is T46, 4H3449-AA.
T46 chain: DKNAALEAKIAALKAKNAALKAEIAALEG
The note with it: mean of both orientations.

As to DKNAALKAKIAALKAENAALEAKIAALKG [O6-AA], the interaction score with P10-AA was -1.2; in the experiment with P9-AA, -0.00244; with P5-AA-1HGe-R, 1.98; with P5-AA-1HGe-M it was 2.06; with P5-AA-1HGe-T, 2.12; with P5-AA-1HGe-Q it was 2.25. In addition, the interaction score with P5-AA-1HGe-Y is 1.74; with P5-AA-1HGe-S, 1.69; with P5-AA-1HGe-A, 2.21; with O8-AA, 1.57; in the experiment with P5-AA-1HGe-W, 1.75; in the experiment with P5-AA-1HGe-H it was 1.6. In addition, the interaction score was -0.751 with O7-AA, -0.782 with O6-AA and 1.7 in the experiment with P5-AA-1HGe-D.

Turning to DENAALEAENAALKAKIAALKAKIAALKG [4H1262-AA], the interaction score in the experiment with 4H1878-AA was -1.09; with 4H1384-AA, -0.839; with 4H2604-AA, -0.779; with 4H1593-AA it was -1.34; with 4H446-AA, -1.67; with 4H2621-AA, -1.25. Besides, the interaction score in the experiment with 4H380-AA was -1.85; with 4H341-AA, -1.06; with 4H432-AA it was -1.48; with 4H3974-AA, 1.62; with 4H3619-AA, 1.07; with 4H2580-AA, -1.41. For the same molecule, the interaction score with 4H3094-AA was -0.633; with 4H2774-AA it was 1.29; with 4H324-AA, -1.15; with 4H1349-AA it was 0.283; in the experiment with 4H3629-AA, -0.649; with 4H1449-AA, -0.611. Also, the interaction score was 0.251 in the experiment with 4H2947-AA; -0.668 with 4H63-AA; 2.49 with 4H3777-AA; 0.551 with 4H1262-AA; 1.09 in the experiment with 4H2760-AA; 1.23 in the experiment with 4H3049-AA. Moreover, the interaction score in the experiment with 4H2903-AA is -1.83; with 4H249-AA, -0.555; in the experiment with 4H235-AA, -0.797; with 4H2961-AA, -0.013; in the experiment with 4H133-AA, 1.64; with 4H3915-AA it was -0.487. In the experiment with 4H3449-AA, this molecule showed an interaction score of -0.766.
